Data from the supplement of paper PMC10567573.

B1: RAB22A (parent)
chain: FVEDSFDPNINPTIGASFMTKTVQ

Variants of: B1
Test: protein stability index of a GFP-peptide fusion (GPS, HEK-293T) (PSI 1-6); higher = more stable
Conditions: c terminus: a fixed tail appended
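Also: lentivirally expressed fusions sorted by FACS into six bins by GFP to DsRed ratio, PSI derived from sequencing read proportions per bin multiplied by bin number.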

Row | Variant | protein stability index
1 | FVEDSFDPNINPTDGASFMTKTVQ | 3.19
2 | FVEDSFDPNINPTRGASFMTKTVQ | 2.14
3 | FVEDSFDPNINPTLGASFMTKTVQ | 2.14
4 | FVEDSFDPNINPTTGASFMTKTVQ | 2.78
5 | FVEDSFDPNINPTVGASFMTKTVQ | 2.69
6 | FVEDSFDPNINPTQGASFMTKTVQ | 2.78
7 | FVEDSFDPNINPTCGASFMTKTVQ | 2.01
8 | FVEDSFDPNINPTEGASFMTKTVQ | 3.21
9 | FVEDSFDPNINPTSGASFMTKTVQ | 2.46
10 | FVEDSFDPNINPTYGASFMTKTVQ | 2.23
11 | FVEDSFDPNINPTGGASFMTKTVQ | 2.59
12 | FVEDSFDPNINPTWGASFMTKTVQ | 2.43
13 | FVEDSFDPNINPTPGASFMTKTVQ | 3.07
14 | FVEDSFDPNINPTNGASFMTKTVQ | 2.81
15 | FVEDSFDPNINPTAGASFMTKTVQ | 2.07
16 | FVEDSFDPNINPTHGASFMTKTVQ | 2.87
17 | FVEDSFDPNINPTKGASFMTKTVQ | 2.29
18 | FVEDSFDPNINPTFGASFMTKTVQ | 2.05
19 | FVEDSFDPNINPTMGASFMTKTVQ | 2.55
20 | FVEDSFDPNINPKIGASFMTKTVQ | 2.29
21 | FVEDSFDPNINPSIGASFMTKTVQ | 2.31
22 | FVEDSFDPNINPAIGASFMTKTVQ | 2.39
23 | FVEDSFDPNINPPIGASFMTKTVQ | 2.67
24 | FVEDSFDPNINPMIGASFMTKTVQ | 1.91

Row | Variant | protein stability index
25 | FVEDSFDPNINPNIGASFMTKTVQ | 2.19
26 | FVEDSFDPNINPGIGASFMTKTVQ | 2.15
27 | FVEDSFDPNINPYIGASFMTKTVQ | 1.73
28 | FVEDSFDPNINPWIGASFMTKTVQ | 3.05
29 | FVEDSFDPNINPDIGASFMTKTVQ | 2.71
30 | FVEDSFDPNINPHIGASFMTKTVQ | 2.31
31 | FVEDSFDPNINPCIGASFMTKTVQ | 1.79
32 | FVEDSFDPNINPFIGASFMTKTVQ | 1.59
33 | FVEDSFDPNINPQIGASFMTKTVQ | 2.44
34 | FVEDSFDPNINPLIGASFMTKTVQ | 2.21
35 | FVEDSFDPNINPRIGASFMTKTVQ | 1.93
36 | FVEDSFDPNINPIIGASFMTKTVQ | 1.75
37 | FVEDSFDPNINPEIGASFMTKTVQ | 2.52
38 | FVEDSFDPNINPVIGASFMTKTVQ | 2.29
39 | FVEDSFDPEINPTIGASFMTKTVQ | 2.47
40 | FVEDSFDPVINPTIGASFMTKTVQ | 2.04
41 | FVEDSFDPSINPTIGASFMTKTVQ | 2.51
42 | FVEDSFDPKINPTIGASFMTKTVQ | 1.88
43 | FVEDSFDPTINPTIGASFMTKTVQ | 2.26
44 | FVEDSFDPYINPTIGASFMTKTVQ | 1.72
45 | FVEDSFDPDINPTIGASFMTKTVQ | 2.73
46 | FVEDSFDPRINPTIGASFMTKTVQ | 1.95
47 | FVEDSFDPHINPTIGASFMTKTVQ | 2.22
48 | FVEDSFDPPINPTIGASFMTKTVQ | 2.49

Row | Variant | protein stability index
49 | FVEDSFDPFINPTIGASFMTKTVQ | 1.92
50 | FVEDSFDPLINPTIGASFMTKTVQ | 1.66
51 | FVEDSFDPWINPTIGASFMTKTVQ | 2.65
52 | FVEDSFDPIINPTIGASFMTKTVQ | 2.23
53 | FVEDSFDPGINPTIGASFMTKTVQ | 2.78
54 | FVEDSFDPQINPTIGASFMTKTVQ | 2.1
55 | FVEDSFDPAINPTIGASFMTKTVQ | 2.25
56 | FVEDSFDPMINPTIGASFMTKTVQ | 2.35
57 | FVEDSFDPCINPTIGASFMTKTVQ | 2.08
58 | FVEDSFDPNLNPTIGASFMTKTVQ | 2.14
59 | FVEDSFDPNPNPTIGASFMTKTVQ | 2.57
60 | FVEDSFDPNDNPTIGASFMTKTVQ | 2.93
61 | FVEDSFDPNTNPTIGASFMTKTVQ | 2.83
62 | FVEDSFDPNKNPTIGASFMTKTVQ | 2.5
63 | FVEDSFDPNANPTIGASFMTKTVQ | 2.48
64 | FVEDSFDPNVNPTIGASFMTKTVQ | 2.21
65 | FVEDSFDPNGNPTIGASFMTKTVQ | 2.3
66 | FVEDSFDPNENPTIGASFMTKTVQ | 3.02
67 | FVEDSFDPNSNPTIGASFMTKTVQ | 2.56
68 | FVEDSFDPNRNPTIGASFMTKTVQ | 2.1
69 | FVEDSFDPNYNPTIGASFMTKTVQ | 2.25
70 | FVEDSFDPNWNPTIGASFMTKTVQ | 1.93
71 | FVEDSFDPNNNPTIGASFMTKTVQ | 2.73
72 | FVEDSFDPNQNPTIGASFMTKTVQ | 2.81

Row | Variant | protein stability index
73 | FVEDSFDPNHNPTIGASFMTKTVQ | 2.48
74 | FVEDSFDPNMNPTIGASFMTKTVQ | 1.99
75 | FVEDSFDPNFNPTIGASFMTKTVQ | 2.2
76 | FVEDSFDPNCNPTIGASFMTKTVQ | 2.14
77 | FVEDSFDPNIIPTIGASFMTKTVQ | 2.23
78 | FVEDSFDPNIEPTIGASFMTKTVQ | 2.58
79 | FVEDSFDPNIDPTIGASFMTKTVQ | 2.56
80 | FVEDSFDPNIMPTIGASFMTKTVQ | 2.14
81 | FVEDSFDPNICPTIGASFMTKTVQ | 2.46
82 | FVEDSFDPNILPTIGASFMTKTVQ | 1.85
83 | FVEDSFDPNIQPTIGASFMTKTVQ | 2.48
84 | FVEDSFDPNIPPTIGASFMTKTVQ | 2.43
85 | FVEDSFDPNIVPTIGASFMTKTVQ | 2.24
86 | FVEDSFDPNIWPTIGASFMTKTVQ | 2.41
87 | FVEDSFDPNISPTIGASFMTKTVQ | 2.04
88 | FVEDSFDPNIAPTIGASFMTKTVQ | 2.42
89 | FVEDSFDPNIGPTIGASFMTKTVQ | 2.07
90 | FVEDSFDPNIHPTIGASFMTKTVQ | 1.85
91 | FVEDSFDPNIRPTIGASFMTKTVQ | 1.75
92 | FVEDSFDPNIFPTIGASFMTKTVQ | 1.82
93 | FVEDSFDPNITPTIGASFMTKTVQ | 2.4
94 | FVEDSFDPNIYPTIGASFMTKTVQ | 2.16
95 | FVEDSFDPNIKPTIGASFMTKTVQ | 2.47
96 | FVEDWFDPNINPTIGASFMTKTVQ | 1.52

Row | Variant | protein stability index
97 | FVEDYFDPNINPTIGASFMTKTVQ | 1.98
98 | FVEDVFDPNINPTIGASFMTKTVQ | 1.89
99 | FVEDTFDPNINPTIGASFMTKTVQ | 2.34
100 | FVEDSFDRNINPTIGASFMTKTVQ | 2.63
101 | FVEDSFDININPTIGASFMTKTVQ | 1.67
102 | FVEDSFDSNINPTIGASFMTKTVQ | 2.17
103 | FVEDSFDENINPTIGASFMTKTVQ | 2.7
104 | FVEDSFDFNINPTIGASFMTKTVQ | 2.94
105 | FVEDSFDGNINPTIGASFMTKTVQ | 2.52
106 | FVEDSFDCNINPTIGASFMTKTVQ | 2.02
107 | FVEDSFDTNINPTIGASFMTKTVQ | 2.39
108 | FVEDSFDKNINPTIGASFMTKTVQ | 2.13
109 | FVEDSFDHNINPTIGASFMTKTVQ | 2.1
110 | FVEDSFDQNINPTIGASFMTKTVQ | 2.26
111 | FVEDSFDWNINPTIGASFMTKTVQ | 2.65
112 | FVEDSFDANINPTIGASFMTKTVQ | 2.33
113 | FVEDSFDYNINPTIGASFMTKTVQ | 1.85
114 | FVEDSFDVNINPTIGASFMTKTVQ | 2.27
115 | FVEDSFDMNINPTIGASFMTKTVQ | 2.06
116 | FVEDSFDNNINPTIGASFMTKTVQ | 2.35
117 | FVEDSFDDNINPTIGASFMTKTVQ | 2.76
118 | FVEDSFDLNINPTIGASFMTKTVQ | 2.1
119 | FVEDSFDPNINPTIIASFMTKTVQ | 1.66
120 | FVEDSFDPNINPTIPASFMTKTVQ | 2.42

Row | Variant | protein stability index
121 | FVEDSFDPNINPTIHASFMTKTVQ | 2.08
122 | FVEDSFDPNINPTINASFMTKTVQ | 2.41
123 | FVEDSFDPNINPTIQASFMTKTVQ | 2.38
124 | FVEDSFDPNINPTIKASFMTKTVQ | 2.1
125 | FVEDSFDPNINPTIFASFMTKTVQ | 2.33
126 | FVEDSFDPNINPTIMASFMTKTVQ | 2.06
127 | FVEDSFDPNINPTIAASFMTKTVQ | 2.46
128 | FVEDSFDPNINPTILASFMTKTVQ | 2.06
129 | FVEDSFDPNINPTIDASFMTKTVQ | 2.86
130 | FVEDSFDPNINPTIEASFMTKTVQ | 2.86
131 | FVEDSFDPNINPTICASFMTKTVQ | 2.03
132 | FVEDSRDPNINPTIGASFMTKTVQ | 2.36
133 | FVEDSVDPNINPTIGASFMTKTVQ | 3.31
134 | FVEDSADPNINPTIGASFMTKTVQ | 2.83
135 | FVEDSHDPNINPTIGASFMTKTVQ | 2.58
136 | FVEDSQDPNINPTIGASFMTKTVQ | 2.88
137 | FVEDSKDPNINPTIGASFMTKTVQ | 2.71
138 | FVEDSWDPNINPTIGASFMTKTVQ | 1.76
139 | FVEDSIDPNINPTIGASFMTKTVQ | 2.56
140 | FVEDSLDPNINPTIGASFMTKTVQ | 2.56
141 | FVEDSEDPNINPTIGASFMTKTVQ | 4.08
142 | FVEDSDDPNINPTIGASFMTKTVQ | 3.85
143 | FVEDSTDPNINPTIGASFMTKTVQ | 2.89
144 | FVEDSGDPNINPTIGASFMTKTVQ | 3.27

Row | Variant | protein stability index
145 | FVEDSPDPNINPTIGASFMTKTVQ | 2.74
146 | FVEDSNDPNINPTIGASFMTKTVQ | 2.9
147 | FVEDSCDPNINPTIGASFMTKTVQ | 2.67
148 | FVEDSYDPNINPTIGASFMTKTVQ | 2.02
149 | FVEDSMDPNINPTIGASFMTKTVQ | 2.69
150 | FVEDSSDPNINPTIGASFMTKTVQ | 2.99
151 | FVEDSFKPNINPTIGASFMTKTVQ | 2.09
152 | FVEDSFEPNINPTIGASFMTKTVQ | 2.36
153 | FVEDSFSPNINPTIGASFMTKTVQ | 1.92
154 | FVEDSFMPNINPTIGASFMTKTVQ | 2.33
155 | FVEDSFWPNINPTIGASFMTKTVQ | 3.07
156 | FVEDSFTPNINPTIGASFMTKTVQ | 2.15
157 | FVEDSFCPNINPTIGASFMTKTVQ | 1.98
158 | FVEDSFYPNINPTIGASFMTKTVQ | 1.67
159 | FVEDSFVPNINPTIGASFMTKTVQ | 1.94
160 | FVEDSFRPNINPTIGASFMTKTVQ | 1.97
161 | FVEDSFLPNINPTIGASFMTKTVQ | 2.15
162 | FVEDSFHPNINPTIGASFMTKTVQ | 2
163 | FVEDSFNPNINPTIGASFMTKTVQ | 1.61
164 | FVEDSFQPNINPTIGASFMTKTVQ | 1.98
165 | FVEDSFFPNINPTIGASFMTKTVQ | 2.75
166 | FVEDSFGPNINPTIGASFMTKTVQ | 1.79
167 | FVEDSFAPNINPTIGASFMTKTVQ | 1.96
168 | FVEDSFIPNINPTIGASFMTKTVQ | 2

Row | Variant | protein stability index
169 | FVEDSFPPNINPTIGASFMTKTVQ | 1.96
170 | FVEDSFDPNINVTIGASFMTKTVQ | 2.18
171 | FVEDSFDPNINNTIGASFMTKTVQ | 2.15
172 | FVEDSFDPNINLTIGASFMTKTVQ | 1.85
173 | FVEDSFDPNINTTIGASFMTKTVQ | 2.25
174 | FVEDSFDPNINSTIGASFMTKTVQ | 2.4
175 | FVEDSFDPNINWTIGASFMTKTVQ | 2.08
176 | FVEDSFDPNINMTIGASFMTKTVQ | 1.89
177 | FVEDSFDPNINKTIGASFMTKTVQ | 2.42
178 | FVEDSFDPNINETIGASFMTKTVQ | 2.57
179 | FVEDSFDPNINCTIGASFMTKTVQ | 2.06
180 | FVEDSFDPNINQTIGASFMTKTVQ | 2.45
181 | FVEDSFDPNINFTIGASFMTKTVQ | 2
182 | FVEDSFDPNINDTIGASFMTKTVQ | 2.49
183 | FVEDSFDPNINRTIGASFMTKTVQ | 1.81
184 | FVEDSFDPNINHTIGASFMTKTVQ | 2.46
185 | FVEDSFDPNINGTIGASFMTKTVQ | 2.29
186 | FVEDSFDPNINYTIGASFMTKTVQ | 2.37
187 | FVEDSFDPNINITIGASFMTKTVQ | 1.82
188 | FVEDSFDPNINATIGASFMTKTVQ | 2.13
